Source: US8114832

What was measured:
[1] = biological target: reduced-alkylated MSA (alkyl-MSA), P07724
[2] = biological target: T1, heat-denatured OVA (dOVA), P01012
T1 chain: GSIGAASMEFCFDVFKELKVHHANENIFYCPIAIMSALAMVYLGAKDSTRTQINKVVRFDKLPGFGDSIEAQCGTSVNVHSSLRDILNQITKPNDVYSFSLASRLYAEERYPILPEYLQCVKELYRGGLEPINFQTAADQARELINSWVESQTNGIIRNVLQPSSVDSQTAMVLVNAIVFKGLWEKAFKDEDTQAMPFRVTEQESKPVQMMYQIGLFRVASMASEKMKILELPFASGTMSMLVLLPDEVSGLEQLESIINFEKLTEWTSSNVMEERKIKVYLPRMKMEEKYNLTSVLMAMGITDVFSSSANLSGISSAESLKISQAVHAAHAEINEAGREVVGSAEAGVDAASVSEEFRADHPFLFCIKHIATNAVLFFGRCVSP

[3] = biological target: T2, human fibrin α-chain(148-160) amyloid fragment with Lys157Gly mutation (FP13)
T2 chain: KRLEVDIDIGIRS

[4] = biological target: heat/acid denatured glucagon, P01275
Chain of heat/acid denatured glucagon, P01275 (P01275 53-81): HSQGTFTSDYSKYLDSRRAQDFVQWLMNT

[5] = biological target: heat-denatured MSA, P07724
Chain of heat-denatured MSA, P07724 (P07724 25-608): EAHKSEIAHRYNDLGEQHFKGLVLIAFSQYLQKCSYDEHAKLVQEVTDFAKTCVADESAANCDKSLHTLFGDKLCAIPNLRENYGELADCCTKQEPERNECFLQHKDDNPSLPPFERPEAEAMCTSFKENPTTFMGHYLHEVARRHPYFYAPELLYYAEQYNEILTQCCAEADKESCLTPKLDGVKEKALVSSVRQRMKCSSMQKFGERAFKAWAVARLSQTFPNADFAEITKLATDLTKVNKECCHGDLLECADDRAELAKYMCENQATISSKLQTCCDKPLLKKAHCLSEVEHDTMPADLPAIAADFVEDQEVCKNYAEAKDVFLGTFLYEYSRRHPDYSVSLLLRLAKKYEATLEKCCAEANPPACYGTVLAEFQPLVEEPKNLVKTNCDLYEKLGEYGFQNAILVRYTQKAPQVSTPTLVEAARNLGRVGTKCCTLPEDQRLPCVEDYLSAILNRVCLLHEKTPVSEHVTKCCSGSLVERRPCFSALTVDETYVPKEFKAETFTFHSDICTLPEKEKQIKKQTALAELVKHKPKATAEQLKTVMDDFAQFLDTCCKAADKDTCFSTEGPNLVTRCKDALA

[6] = biological target: Native MSA (nMSA), P07724
Chain of Native MSA (nMSA), P07724 (P07724 25-608): as above

[7] = biological target: modified gelatin for infusion stored at 37° C.
[8] = biological target: Human amyloid-β (1-40) Dutch type
[9] = biological target: T3, non-amyloid fragment FP10 of human fibrin α-chain(148-157)
T3 chain: KRLEVDIDIK

[10] = biological target: human-modified gelatin (Gelofusine), stored at 4° C.
mIAPP = biological target: T4, mIAPP
T4 sequence (P12968 38-74, species assumed, looked up): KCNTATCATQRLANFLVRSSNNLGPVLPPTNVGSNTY

[11] = biological target: T5, freshly dissolved FP13 K157G
T5 chain: KRLEVDIDIGIRS

[12] = biological target: glycated hemoglobin (Hb-AGE), P69905
Chain of glycated hemoglobin (Hb-AGE), P69905 (P69905 2-142, chain 1 of 2): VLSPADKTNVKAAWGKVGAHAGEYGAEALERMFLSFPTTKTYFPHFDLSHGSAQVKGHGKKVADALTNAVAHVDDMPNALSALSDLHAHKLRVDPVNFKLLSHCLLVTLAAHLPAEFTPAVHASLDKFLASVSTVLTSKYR
Chain of glycated hemoglobin (Hb-AGE), P69905 (chain, as listed by the source, chain 2 of 2): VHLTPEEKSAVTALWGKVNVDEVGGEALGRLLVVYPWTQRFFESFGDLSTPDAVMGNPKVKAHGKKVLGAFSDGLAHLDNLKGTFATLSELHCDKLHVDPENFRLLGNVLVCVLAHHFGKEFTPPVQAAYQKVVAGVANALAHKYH

Chain of reduced-alkylated MSA (alkyl-MSA), P07724 (P07724 25-608): as the sequence (P07724 25-608) above

B1: tissue-type plasminogen activator (tPA) (protein)
chain: SYQVICRDEKTQMIYQQHQSWLRPVLRSNRVEYCWCNSGRAQCHSVPVKSCSEPRCFNGGTCQQALYFSDFVCQCPEGFAGKCCEIDTRATCYEDQGISYRGTWSTAESGAECTNWNSSALAQKPYSGRRPDAIRLGLGNHNYCRNPDRDSKPWCYVFKAGKYSSEFCSTPACSEGNSDCYFGNGSAYRGTHSLTESGASCLPWNSMILIGKVYTAQNPSAQALGLGKHNYCRNPDGDAKPWCHVLKNRRLTWEYCDVPSCSTCGLRQYSQPQFRIKGGLFADIASHPWQAAIFAKHRRSPGERFLCGGILISSCWILSAAHCFQERFPPHHLTVILGRTYRVVPGEEEQKFEVEKYIVHKEFDDDTYDNDIALLQLKSDSSRCAQESSVVRTVCLPPADLQLPDWTECELSGYGKHEALSPFYSERLKEAHVRLYPSSRCTSQHLLNRTVTDNMLCAGDTRSGGPQANLHDACQGDSGGPLVCLNDGRMTLVGIISWGLGCGQKDVPGVYTKVTNYLDWIRDNMRP
[1]
  tPA activation assay: Although heat-denatured MSA and alkylated MSA enhance ThT fluorescence to a similar extent, they differ in tPA activating potential
[2]
  Plg-activation assay: The presence of the cross-β structure conformation was established with ThT fluorescence and Plg-activation assays and by TEM imaging
[3]
  chromogenic Plg-activation assay: The positive control was amyloid fibrin peptide FP13
[4]
  tPA activation assay: a potent activator of tPA was obtained
Native glucagon, P01275
  tPA activation assay: at high glucagon concentration, also native glucagon has some tPA activating potential
[5]
  tPA activation assay: Although heat-denatured MSA and alkylated MSA enhance ThT fluorescence to a similar extent, they differ in tPA activating potential
endostatin, P39060
Chain of endostatin, P39060 (P39060 whole entry, looked up): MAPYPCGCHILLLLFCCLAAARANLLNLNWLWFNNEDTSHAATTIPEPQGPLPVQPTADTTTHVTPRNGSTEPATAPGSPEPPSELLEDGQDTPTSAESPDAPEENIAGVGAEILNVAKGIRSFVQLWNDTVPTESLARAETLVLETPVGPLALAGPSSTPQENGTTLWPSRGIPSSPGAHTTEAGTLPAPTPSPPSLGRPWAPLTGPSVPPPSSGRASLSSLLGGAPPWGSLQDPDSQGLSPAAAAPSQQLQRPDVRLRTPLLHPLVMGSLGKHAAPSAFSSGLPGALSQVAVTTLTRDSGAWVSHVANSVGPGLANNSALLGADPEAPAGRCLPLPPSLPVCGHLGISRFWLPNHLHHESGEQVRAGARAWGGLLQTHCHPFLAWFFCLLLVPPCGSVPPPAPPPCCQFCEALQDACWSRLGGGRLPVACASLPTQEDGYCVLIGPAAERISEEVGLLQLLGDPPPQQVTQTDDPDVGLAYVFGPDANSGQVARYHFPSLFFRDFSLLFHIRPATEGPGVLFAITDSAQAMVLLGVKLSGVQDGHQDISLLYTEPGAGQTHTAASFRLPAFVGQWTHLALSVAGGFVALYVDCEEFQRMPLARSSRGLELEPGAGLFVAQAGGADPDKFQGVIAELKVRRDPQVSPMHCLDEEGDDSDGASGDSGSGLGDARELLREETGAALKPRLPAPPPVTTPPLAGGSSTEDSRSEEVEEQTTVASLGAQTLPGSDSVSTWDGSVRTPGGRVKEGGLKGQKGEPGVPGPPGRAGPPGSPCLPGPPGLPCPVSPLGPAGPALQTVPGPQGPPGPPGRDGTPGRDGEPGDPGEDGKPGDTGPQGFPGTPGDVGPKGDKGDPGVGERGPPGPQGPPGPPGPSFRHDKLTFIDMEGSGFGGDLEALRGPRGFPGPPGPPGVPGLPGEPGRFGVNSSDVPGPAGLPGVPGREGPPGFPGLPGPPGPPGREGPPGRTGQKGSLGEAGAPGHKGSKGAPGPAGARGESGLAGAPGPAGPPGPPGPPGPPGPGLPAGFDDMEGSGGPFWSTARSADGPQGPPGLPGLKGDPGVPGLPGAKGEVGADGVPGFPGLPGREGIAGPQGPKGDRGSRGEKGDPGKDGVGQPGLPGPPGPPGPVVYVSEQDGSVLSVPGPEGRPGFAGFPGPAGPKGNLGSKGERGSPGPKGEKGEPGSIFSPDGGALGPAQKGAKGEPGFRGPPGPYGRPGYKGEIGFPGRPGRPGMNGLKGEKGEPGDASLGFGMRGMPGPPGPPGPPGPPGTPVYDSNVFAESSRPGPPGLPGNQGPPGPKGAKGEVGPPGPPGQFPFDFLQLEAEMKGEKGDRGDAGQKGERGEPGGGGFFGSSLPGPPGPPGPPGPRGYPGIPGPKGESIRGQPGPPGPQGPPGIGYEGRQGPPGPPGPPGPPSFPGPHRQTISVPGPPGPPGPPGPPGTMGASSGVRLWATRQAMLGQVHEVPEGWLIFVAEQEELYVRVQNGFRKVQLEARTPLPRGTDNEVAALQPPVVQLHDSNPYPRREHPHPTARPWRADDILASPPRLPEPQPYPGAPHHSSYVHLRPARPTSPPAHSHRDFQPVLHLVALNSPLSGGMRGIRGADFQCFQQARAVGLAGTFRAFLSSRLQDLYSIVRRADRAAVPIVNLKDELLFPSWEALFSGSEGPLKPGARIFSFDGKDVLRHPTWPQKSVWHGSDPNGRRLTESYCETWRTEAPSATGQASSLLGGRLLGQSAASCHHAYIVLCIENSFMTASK
  tPA activation assay: the absence of tPA activating properties in 100 µg ml^-1 endostatin
[6]
  Plg-activation assay: native MSA enhanced ThT fluorescence to some extent, but this was not reflected by stimulation of tPA activation

B2: factor XII (protein)
chain: IPPWEAPKEHKYKAEEHTVVLTVTGEPCHFPFQYHRQLYHKCTHKGRPGPQPWCATTPNFDQDQRWGYCLEPKKVKDHCSKHSPCQKGGTCVNMPSGPHCLCPQHLTGNHCQKEKCFEPQLLRFFHKNEIWYRTEQAAVARCQCKGPDAHCQRLASQACRTNPCLHGGRCLEVEGHRLCHCPVGYTGAFCDVDTKASCYDGRGLSYRGLARTTLSGAPCQPWASEATYRNVTAEQARNWGLGGHAFCRNPDNDIRPWCFVLNRDRLSWEYCDLAQCQTPTQAAPPTPVSPRLHVPLMPAQPAPPKPQPTTRTPPQSQTPGALPAKREQPPSLTRNGPLSCGQRLRKSLSSMTRVVGGLVALRGAHPYIAALYWGHSFCAGSLIAPCWVLTAAHCLQDRPAPEDLTVVLGQERRNHSCEPCQTLAVRSYRLHEAFSPVSYQHDLALLRLQEDADGSCALLSPYVQPVCLPSGAARPSETTLCQVAGWGHQFEGAEEYASFLQEAQVPFLSLERCSAPDVHGSSILPGMLCAGFLEGGTDACQGDSGGPLVCEDQAAERRLTLQGIISWGSGCGDRNKPGVYTDVAYYLAWIREHTVS
[7]
  chromogenic kallikrein activity assay: Only gelatin kept at 37 °C activated factor XII
[8]
  auto-activation of purified factor XII, substrate S-2222: the potency of the Aβ(1-40) E22Q was somewhat lower
  conversion of Chromozym PK, upon formation of kallikrein from prekallikrein by activated factor XII: amyloid-like peptide aggregates of FP13 and Aβ stimulate the activation of factor XII
[3]
  auto-activation of purified factor XII, substrate S-2222: FP13 K157G and Hb-AGE have a potency to induce auto-activation that was similar to the established surface activator DXS500k
  conversion of Chromozym PK, upon formation of kallikrein from prekallikrein by activated factor XII: amyloid-like peptide aggregates of FP13 and Aβ stimulate the activation of factor XII
LAM12
  factor XII/kallikrein chromogenic assay: cross-β structure conformation rich peptides LAM12 and TTR11 stimulate factor XII activation, to a similar extent as kaolin
Native Hb, P69905
  auto-activation of purified factor XII, substrate S-2222: Freshly dissolved native Hb, ultracentrifuged for one hour at 100,000*g, and freshly dissolved FP13 K157G did not or hardly auto-activate factor XII (not shown)
[9]
  conversion of Chromozym PK, upon formation of kallikrein from prekallikrein by activated factor XII: non-amyloid controls FP10 and mIAPP do not activate factor XII
[10]
  chromogenic kallikrein activity assay: Only gelatin kept at 37 °C activated factor XII
TTR11
  factor XII/kallikrein chromogenic assay: cross-β structure conformation rich peptides LAM12 and TTR11 stimulate factor XII activation, to a similar extent as kaolin
mIAPP
  conversion of Chromozym PK, upon formation of kallikrein from prekallikrein by activated factor XII: non-amyloid controls FP10 and mIAPP do not activate factor XII
[11]
  auto-activation of purified factor XII, substrate S-2222: Freshly dissolved native Hb, ultracentrifuged for one hour at 100,000*g, and freshly dissolved FP13 K157G did not or hardly auto-activate factor XII (not shown)
[12]
  auto-activation of purified factor XII, substrate S-2222: FP13 K157G and Hb-AGE have a potency to induce auto-activation that was similar to the established surface activator DXS500k
